Test results: patent US20170298096A1 (CANIMGUIDE THERAPEUTICS, published 2017)
No end group written: not given here.

T1: His-tagged P3028 (human, also: His-tag, terminus and sequence not given here)
T1 construct: used in solution in the PEPSCAN (rampo) ELISA; also called PGE73; His-tag-P3028; not shown: His tag
T1 peptide: VFDEFKPLVEEPQNLIK

B1: SEQ ID NO 12 (peptide)
peptide: KKLDTFTVKLSLFTER
B2: SEQ ID NO 28 (peptide)
peptide: KKLDTFFVKLSLGTER
B3: SEQ ID NO 290 (peptide)
peptide: KKKDTFFVKLSLFTER
B4: SEQ ID NO 293 (peptide)
peptide: KKQDTFFVKLSLFTER
B5: SEQ ID NO 283 (peptide)
peptide: KKCDTFFVKLSLFTER
B6: SEQ ID NO 311 (peptide)
peptide: KKLDWFFVKLSLFTER
B7: SEQ ID NO 269 (peptide)
peptide: DKLDTFFVKLSLFTER
B8: SEQ ID NO 279 (peptide)
peptide: RKLDTFFVKLSLFTER
B9: SEQ ID NO 302 (peptide)
peptide: KKLWTFFVKLSLFTER
B10: SEQ ID NO 299 (peptide)
peptide: KKLETFFVKLSLFTER
B11: SEQ ID NO 315 (peptide)
peptide: KKLDTMFVKLSLFTER
B12: SEQ ID NO 313 (peptide)
peptide: KKLDTAFVKLSLFTER
B13: SEQ ID NO 300 (peptide)
peptide: KKLITFFVKLSLFTER
B14: SEQ ID NO 277 (peptide)
peptide: PKLDTFFVKLSLFTER
B15: SEQ ID NO 14 (peptide)
peptide: KKLDTFFVKVSLFTER
B16: SEQ ID NO 285 (peptide)
peptide: KKEDTFFVKLSLFTER
B17: SEQ ID NO 281 (peptide)
peptide: VKLDTFFVKLSLFTER
B18: SEQ ID NO 19 (peptide)
peptide: KKLDTFFVKLSQFTER
B19: SEQ ID NO 270 (peptide)
peptide: EKLDTFFVKLSLFTER
B20: SEQ ID NO 30 (peptide)
peptide: KKLDTFFVKLSLRTER
B21: SEQ ID NO 272 (peptide)
peptide: HKLDTFFVKLSLFTER
B22: SEQ ID NO 273 (peptide)
peptide: IKLDTFFVKLSLFTER
B23: SEQ ID NO 278 (peptide)
peptide: QKLDTFFVKLSLFTER
B24: SEQ ID NO 27 (peptide)
peptide: KKLDTFFVKLSLSTER
B25: SEQ ID NO 303 (peptide)
peptide: KKLYTFFVKLSLFTER
B26: SEQ ID NO 309 (peptide)
peptide: KKLDRFFVKLSLFTER
B27: SEQ ID NO 288 (peptide)
peptide: KKHDTFFVKLSLFTER
B28: SEQ ID NO 29 (peptide)
peptide: KKLDTFFVKLSLATER
B29: SEQ ID NO 316 (peptide)
peptide: KKLDTNFVKLSLFTER
B30: SEQ ID NO 310 (peptide)
peptide: KKLDSFFVKLSLFTER
B31: SEQ ID NO 298 (peptide)
peptide: KKLATFFVKLSLFTER
B32: SEQ ID NO 306 (peptide)
peptide: KKLDNFFVKLSLFTER
B33: SEQ ID NO 33 (peptide)
peptide: KKLDTFFVKLSLFRER
B34: SEQ ID NO 280 (peptide)
peptide: TKLDTFFVKLSLFTER
B35: SEQ ID NO 297 (peptide)
peptide: KKVDTFFVKLSLFTER
B36: SEQ ID NO 314 (peptide)
peptide: KKLDTIFVKLSLFTER
B37: SEQ ID NO 276 (peptide)
peptide: NKLDTFFVKLSLFTER
B38: SEQ ID NO 268 (peptide)
peptide: AKLDTFFVKLSLFTER
B39: SEQ ID NO 304 (peptide)
peptide: KKLDCFFVKLSLFTER
B40: SEQ ID NO 286 (peptide)
peptide: KKFDTFFVKLSLFTER
B41: SEQ ID NO 295 (peptide)
peptide: KKSDTFFVKLSLFTER
B42: SEQ ID NO 17 (peptide)
peptide: KKLDTFFVKLTLFTER
B43: SEQ ID NO 271 (peptide)
peptide: GKLDTFFVKLSLFTER
B44: SEQ ID NO 26 (peptide)
peptide: KKLDTFFVKLSLPTER
B45: SEQ ID NO 32 (peptide)
peptide: KKLDTFFVKLSLFPER
B46: SEQ ID NO 317 (peptide)
peptide: KKLDTPFVKLSLFTER
B47: SEQ ID NO 289 (peptide)
peptide: KKIDTFFVKLSLFTER
B48: SEQ ID NO 282 (peptide)
peptide: KKADTFFVKLSLFTER
B49: SEQ ID NO 20 (peptide)
peptide: KKLDTFFVKLSVFTER
B50: SEQ ID NO 301 (peptide)
peptide: KKLVTFFVKLSLFTER
B51: SEQ ID NO 31 (peptide)
peptide: KKLDTFFVKLSLFNER
B52: SEQ ID NO 292 (peptide)
peptide: KKNDTFFVKLSLFTER
B53: SEQ ID NO 296 (peptide)
peptide: KKTDTFFVKLSLFTER
B54: SEQ ID NO 21 (peptide)
peptide: KKLDTFFVKLSMFTER
B55: SEQ ID NO 291 (peptide)
peptide: KKMDTFFVKLSLFTER
B56: SEQ ID NO 284 (peptide)
peptide: KKDDTFFVKLSLFTER
B57: SEQ ID NO 274 (peptide)
peptide: LKLDTFFVKLSLFTER
B58: SEQ ID NO 312 (peptide)
peptide: KKLDYFFVKLSLFTER
B59: SEQ ID NO 305 (peptide)
peptide: KKLDMFFVKLSLFTER
B60: SEQ ID NO 294 (peptide)
peptide: KKRDTFFVKLSLFTER
B61: SEQ ID NO 275 (peptide)
peptide: MKLDTFFVKLSLFTER
B62: SEQ ID NO 307 (peptide)
peptide: KKLDPFFVKLSLFTER
B63: SEQ ID NO 287 (peptide)
peptide: KKGDTFFVKLSLFTER
B64: SEQ ID NO 308 (peptide)
peptide: KKLDQFFVKLSLFTER
B65: SEQ ID NO 13 (peptide)
peptide: KKLDTFLVKLSLFTER
B66: SEQ ID NO 18 (peptide)
peptide: KKLDTFFVKLHLFTER

Target: T1, His-tagged P3028
Assay: PEPSCAN ELISA (rampo)
Experimental: After washing, the peroxidase substrate 2,2′-azine-di-3-ethylbenzthiazoline sulfonate (ABTS) and 2 μL of 3% H2O2 were added. The binding capacity of the mAb was measured as a color development at 405 nm (optical density, OD405). The color development was quantified with a charge-coupled device (CCD)—camera and an image processing system.
The OD405-values obtained by a CCD-camera was considered as raw data values (“rampo values,” “rampo units,” or “rampo scores”). […] First the CCD-camera made a picture of the card before peroxidase coloring and then again a picture after the peroxidase coloring. […] These values were copied into an excel file and labeled as a raw data file. One follow-up manipulation was allowed. Sometimes a well can contain an air-bubble resulting in a false-positive value. If manual inspection of the cards detect an air-bubble the value are set to 0 for that well.
With B1 the rampo value was > 500 rampo units. With B2 the rampo value was > 500 rampo units. For B3, the “rampo score relative to the P28R control sample” value was ≥ 98 % of P28R control. B4 was tested, and the “rampo score relative to the P28R control sample” value was ≥ 98 % of P28R control. B5 was tested, and the “rampo score relative to the P28R control sample” value was ≥ 98 % of P28R control. For B6, the “rampo score relative to the P28R control sample” value was ≥ 98 % of P28R control. In the case of B7, the “rampo score relative to the P28R control sample” value is reported as ≥ 98 % of P28R control. In the case of B8, the “rampo score relative to the P28R control sample” value is reported as ≥ 98 % of P28R control. B9 was tested, and the “rampo score relative to the P28R control sample” value was ≥ 98 % of P28R control. B10 was tested, and the “rampo score relative to the P28R control sample” value was ≥ 98 % of P28R control. B11 was tested, and the “rampo score relative to the P28R control sample” value was ≥ 98 % of P28R control. For B12, the “rampo score relative to the P28R control sample” value was ≥ 98 % of P28R control. B13 was tested, and the “rampo score relative to the P28R control sample” value was ≥ 98 % of P28R control. In the case of B14, the “rampo score relative to the P28R control sample” value is reported as ≥ 98 % of P28R control. In the case of B15, the rampo value is reported as > 500 rampo units. For B16, the “rampo score relative to the P28R control sample” value was ≥ 98 % of P28R control. B17 was tested, and the “rampo score relative to the P28R control sample” value was ≥ 98 % of P28R control. With B18 the rampo value was > 500 rampo units. In the case of B19, the “rampo score relative to the P28R control sample” value is reported as ≥ 98 % of P28R control. B20 was tested, and the rampo value was > 500 rampo units. In the case of B21, the “rampo score relative to the P28R control sample” value is reported as ≥ 98 % of P28R control. With B22 the “rampo score relative to the P28R control sample” value was ≥ 98 % of P28R control. B23 was tested, and the “rampo score relative to the P28R control sample” value was ≥ 98 % of P28R control. For B24, the rampo value was > 500 rampo units. With B25 the “rampo score relative to the P28R control sample” value was ≥ 98 % of P28R control. B26 was tested, and the “rampo score relative to the P28R control sample” value was ≥ 98 % of P28R control. B27 was tested, and the “rampo score relative to the P28R control sample” value was ≥ 98 % of P28R control. With B28 the rampo value was > 500 rampo units. In the case of B29, the “rampo score relative to the P28R control sample” value is reported as ≥ 98 % of P28R control. With B30 the “rampo score relative to the P28R control sample” value was ≥ 98 % of P28R control. B31 was tested, and the “rampo score relative to the P28R control sample” value was ≥ 98 % of P28R control. With B32 the “rampo score relative to the P28R control sample” value was ≥ 98 % of P28R control. In the case of B33, the rampo value is reported as > 500 rampo units. With B34 the “rampo score relative to the P28R control sample” value was ≥ 98 % of P28R control. For B35, the “rampo score relative to the P28R control sample” value was ≥ 98 % of P28R control. For B36, the “rampo score relative to the P28R control sample” value was ≥ 98 % of P28R control. B37 was tested, and the “rampo score relative to the P28R control sample” value was ≥ 98 % of P28R control. For B38, the “rampo score relative to the P28R control sample” value was ≥ 98 % of P28R control. With B39 the “rampo score relative to the P28R control sample” value was ≥ 98 % of P28R control. With B40 the “rampo score relative to the P28R control sample” value was ≥ 98 % of P28R control. B41 was tested, and the “rampo score relative to the P28R control sample” value was ≥ 98 % of P28R control. With B42 the rampo value was > 500 rampo units. In the case of B43, the “rampo score relative to the P28R control sample” value is reported as ≥ 98 % of P28R control. For B44, the rampo value was > 500 rampo units. With B45 the rampo value was > 500 rampo units. With B46 the “rampo score relative to the P28R control sample” value was ≥ 98 % of P28R control. B47 was tested, and the “rampo score relative to the P28R control sample” value was ≥ 98 % of P28R control. With B48 the “rampo score relative to the P28R control sample” value was ≥ 98 % of P28R control. In the case of B49, the rampo value is reported as > 500 rampo units. B50 was tested, and the “rampo score relative to the P28R control sample” value was ≥ 98 % of P28R control. In the case of B51, the rampo value is reported as > 500 rampo units. With B52 the “rampo score relative to the P28R control sample” value was ≥ 98 % of P28R control. In the case of B53, the “rampo score relative to the P28R control sample” value is reported as ≥ 98 % of P28R control. In the case of B54, the rampo value is reported as > 500 rampo units. For B55, the “rampo score relative to the P28R control sample” value was ≥ 98 % of P28R control. In the case of B56, the “rampo score relative to the P28R control sample” value is reported as ≥ 98 % of P28R control. For B57, the “rampo score relative to the P28R control sample” value was ≥ 98 % of P28R control. B58 was tested, and the “rampo score relative to the P28R control sample” value was ≥ 98 % of P28R control. With B59 the “rampo score relative to the P28R control sample” value was ≥ 98 % of P28R control. With B60 the “rampo score relative to the P28R control sample” value was ≥ 98 % of P28R control. With B61 the “rampo score relative to the P28R control sample” value was ≥ 98 % of P28R control. With B62 the “rampo score relative to the P28R control sample” value was ≥ 98 % of P28R control. B63 was tested, and the “rampo score relative to the P28R control sample” value was ≥ 98 % of P28R control. For B64, the “rampo score relative to the P28R control sample” value was ≥ 98 % of P28R control. B65 was tested, and the rampo value was > 500 rampo units. B66 was tested, and the rampo value was > 500 rampo units.
